# B1: single VH domain antibody 8.1 (VHH)
# VHH: QVQLQQWGAGLLKPSETLSLTCAVYGGSFSGYYWSWIRQPPGKGLEWIGEINHSGSTNYNPSLKSRVTISVDTSKNQFSLKLSSVTAADTAVYYCARGPIPATAIPDAFDIWGQGTMVTVSS
# notes: human single VH domain (Humabody); not shown: C-terminal His tag
# B2: 1.11-6GS-2.1 (bispecific antibody, not shown: small tags and cut ends)
# chain: EVQLLESGGGLVQPGGSLRLSCAASGFSFSSYALSWVRQAPGKGLEWVSSIGENNDTTDYADNVKGRFTISRDNSKNTLYLQMNSLRVEDTAVYYCVKDGVHWGQGTLVTVSSGGGGSGGGGSGGGGSGGGGSGGGGSGGGGSEVQLVESGGGVVQPGRSLRLSCAASGFSFSGYGMHWVRQAPGKGLEWVAYISYDGSNKYYADSVKGRFTISRDNSKNTLYLQMNSLRAEDTAVYYCAKDPAWGLRLGESSSYDFDIWGQGTMVTVSS
# B3: 1.11-6GS-2.22 (bispecific antibody, not shown: small tags and cut ends)
# chain: EVQLLESGGGLVQPGGSLRLSCAASGFSFSSYALSWVRQAPGKGLEWVSSIGENNDTTDYADNVKGRFTISRDNSKNTLYLQMNSLRVEDTAVYYCVKDGVHWGQGTLVTVSSGGGGSGGGGSGGGGSGGGGSGGGGSGGGGSEVQLVESGGGVVQPGRSLRLSCAASGFSFSGYGTHWVRQAPGKGLEWVAYISYDGSNKYYAAPVKGRFTISRDNSKNTLYLQMNSLRAEDTAVYYCAKDAAWGLRLGESSSYDFDIWGQGTMVTVSS
# B4: 1.1-6GS-2.1 (bispecific antibody, not shown: small tags and cut ends)
# chain: EVQLLESGGGLVQPGGSLRLSCAASGFSFSSYAMSWVRQAPGKGLEWVSSIGENDGTTDYADSVKGRFTISRDNSKSMLYLQMNSLRVEDTAVYYCVKDGVHWGQGTLVTVSSGGGGSGGGGSGGGGSGGGGSGGGGSGGGGSEVQLVESGGGVVQPGRSLRLSCAASGFSFSGYGMHWVRQAPGKGLEWVAYISYDGSNKYYADSVKGRFTISRDNSKNTLYLQMNSLRAEDTAVYYCAKDPAWGLRLGESSSYDFDIWGQGTMVTVSS
# B5: 1.18-6GS-2.1 (bispecific antibody, not shown: small tags and cut ends)
# chain: EVQLLESGGGLVQPGGSLRLSCAASGFSFSSYALSWVRQAPGKGLEWVSSIGENNATTDYAASVKGRFTISRDNSKNTLYLQMNSLRVEDTAVYYCVKDGVHWGQGTLVTVSSGGGGSGGGGSGGGGSGGGGSGGGGSGGGGSEVQLVESGGGVVQPGRSLRLSCAASGFSFSGYGMHWVRQAPGKGLEWVAYISYDGSNKYYADSVKGRFTISRDNSKNTLYLQMNSLRAEDTAVYYCAKDPAWGLRLGESSSYDFDIWGQGTMVTVSS
# B6: 1.11-6GS-2.15 (bispecific antibody, not shown: small tags and cut ends)
# chain: EVQLLESGGGLVQPGGSLRLSCAASGFSFSSYALSWVRQAPGKGLEWVSSIGENNDTTDYADNVKGRFTISRDNSKNTLYLQMNSLRVEDTAVYYCVKDGVHWGQGTLVTVSSGGGGSGGGGSGGGGSGGGGSGGGGSGGGGSEVQLVESGGGVVQPGRSLRLSCAASGFSFSGYGLHWVRQAPGKGLEWVAYISYDKSNKYYADKVKGRFTISRDNSKNTLYLQMNSLRAEDTAVYYCAKDPAWGLRLGESSSYDFDIWGQGTMVTVSS
# B7: 1.16-6GS-2.17 (bispecific antibody, not shown: small tags and cut ends)
# chain: EVQLLESGGGLVQPGGSLRLSCAASGFSFSSYALSWVRQAPGKGLEWVSSIGENNHTTDYADTVKGRFTISRDNSKNTLYLQMNSLRVEDTAVYYCVKDGVHWGQGTLVTVSSGGGGSGGGGSGGGGSGGGGSGGGGSGGGGSEVQLVESGGGVVQPGRSLRLSCAASGFSFSGYGMHWVRQAPGKGLEWVAYISYDASNKYYADNVKGRFTISRDNSKNTLYLQMNSLRAEDTAVYYCAKDPAWGLRLGESSSYDFDIWGQGTMVTVSS
# B8: 1.11-6GS-2.17 (bispecific antibody, not shown: small tags and cut ends)
# chain: EVQLLESGGGLVQPGGSLRLSCAASGFSFSSYALSWVRQAPGKGLEWVSSIGENNDTTDYADNVKGRFTISRDNSKNTLYLQMNSLRVEDTAVYYCVKDGVHWGQGTLVTVSSGGGGSGGGGSGGGGSGGGGSGGGGSGGGGSEVQLVESGGGVVQPGRSLRLSCAASGFSFSGYGMHWVRQAPGKGLEWVAYISYDASNKYYADNVKGRFTISRDNSKNTLYLQMNSLRAEDTAVYYCAKDPAWGLRLGESSSYDFDIWGQGTMVTVSS
# B9: 1.16-6GS-2.22 (bispecific antibody, not shown: small tags and cut ends)
# chain: EVQLLESGGGLVQPGGSLRLSCAASGFSFSSYALSWVRQAPGKGLEWVSSIGENNHTTDYADTVKGRFTISRDNSKNTLYLQMNSLRVEDTAVYYCVKDGVHWGQGTLVTVSSGGGGSGGGGSGGGGSGGGGSGGGGSGGGGSEVQLVESGGGVVQPGRSLRLSCAASGFSFSGYGTHWVRQAPGKGLEWVAYISYDGSNKYYAAPVKGRFTISRDNSKNTLYLQMNSLRAEDTAVYYCAKDAAWGLRLGESSSYDFDIWGQGTMVTVSS
# B10: 1.16-6GS-2.1 (bispecific antibody, not shown: small tags and cut ends)
# chain: EVQLLESGGGLVQPGGSLRLSCAASGFSFSSYALSWVRQAPGKGLEWVSSIGENNHTTDYADTVKGRFTISRDNSKNTLYLQMNSLRVEDTAVYYCVKDGVHWGQGTLVTVSSGGGGSGGGGSGGGGSGGGGSGGGGSGGGGSEVQLVESGGGVVQPGRSLRLSCAASGFSFSGYGMHWVRQAPGKGLEWVAYISYDGSNKYYADSVKGRFTISRDNSKNTLYLQMNSLRAEDTAVYYCAKDPAWGLRLGESSSYDFDIWGQGTMVTVSS
# B11: 1.18-6GS-2.17 (bispecific antibody, not shown: small tags and cut ends)
# chain: EVQLLESGGGLVQPGGSLRLSCAASGFSFSSYALSWVRQAPGKGLEWVSSIGENNATTDYAASVKGRFTISRDNSKNTLYLQMNSLRVEDTAVYYCVKDGVHWGQGTLVTVSSGGGGSGGGGSGGGGSGGGGSGGGGSGGGGSEVQLVESGGGVVQPGRSLRLSCAASGFSFSGYGMHWVRQAPGKGLEWVAYISYDASNKYYADNVKGRFTISRDNSKNTLYLQMNSLRAEDTAVYYCAKDPAWGLRLGESSSYDFDIWGQGTMVTVSS
# B12: 1.1-6GS-2.17 (bispecific antibody, not shown: small tags and cut ends)
# chain: EVQLLESGGGLVQPGGSLRLSCAASGFSFSSYAMSWVRQAPGKGLEWVSSIGENDGTTDYADSVKGRFTISRDNSKSMLYLQMNSLRVEDTAVYYCVKDGVHWGQGTLVTVSSGGGGSGGGGSGGGGSGGGGSGGGGSGGGGSEVQLVESGGGVVQPGRSLRLSCAASGFSFSGYGMHWVRQAPGKGLEWVAYISYDASNKYYADNVKGRFTISRDNSKNTLYLQMNSLRAEDTAVYYCAKDPAWGLRLGESSSYDFDIWGQGTMVTVSS
# B13: 1.18-6GS-2.15 (bispecific antibody, not shown: small tags and cut ends)
# chain: EVQLLESGGGLVQPGGSLRLSCAASGFSFSSYALSWVRQAPGKGLEWVSSIGENNATTDYAASVKGRFTISRDNSKNTLYLQMNSLRVEDTAVYYCVKDGVHWGQGTLVTVSSGGGGSGGGGSGGGGSGGGGSGGGGSGGGGSEVQLVESGGGVVQPGRSLRLSCAASGFSFSGYGLHWVRQAPGKGLEWVAYISYDKSNKYYADKVKGRFTISRDNSKNTLYLQMNSLRAEDTAVYYCAKDPAWGLRLGESSSYDFDIWGQGTMVTVSS
# B14: 1.1-6GS-2.22 (bispecific antibody, not shown: small tags and cut ends)
# chain: EVQLLESGGGLVQPGGSLRLSCAASGFSFSSYAMSWVRQAPGKGLEWVSSIGENDGTTDYADSVKGRFTISRDNSKSMLYLQMNSLRVEDTAVYYCVKDGVHWGQGTLVTVSSGGGGSGGGGSGGGGSGGGGSGGGGSGGGGSEVQLVESGGGVVQPGRSLRLSCAASGFSFSGYGTHWVRQAPGKGLEWVAYISYDGSNKYYAAPVKGRFTISRDNSKNTLYLQMNSLRAEDTAVYYCAKDAAWGLRLGESSSYDFDIWGQGTMVTVSS
# B15: 1.16-6GS-2.15 (bispecific antibody, not shown: small tags and cut ends)
# chain: EVQLLESGGGLVQPGGSLRLSCAASGFSFSSYALSWVRQAPGKGLEWVSSIGENNHTTDYADTVKGRFTISRDNSKNTLYLQMNSLRVEDTAVYYCVKDGVHWGQGTLVTVSSGGGGSGGGGSGGGGSGGGGSGGGGSGGGGSEVQLVESGGGVVQPGRSLRLSCAASGFSFSGYGLHWVRQAPGKGLEWVAYISYDKSNKYYADKVKGRFTISRDNSKNTLYLQMNSLRAEDTAVYYCAKDPAWGLRLGESSSYDFDIWGQGTMVTVSS
# B16: 1.18-6GS-2.22 (bispecific antibody, not shown: small tags and cut ends)
# chain: EVQLLESGGGLVQPGGSLRLSCAASGFSFSSYALSWVRQAPGKGLEWVSSIGENNATTDYAASVKGRFTISRDNSKNTLYLQMNSLRVEDTAVYYCVKDGVHWGQGTLVTVSSGGGGSGGGGSGGGGSGGGGSGGGGSGGGGSEVQLVESGGGVVQPGRSLRLSCAASGFSFSGYGTHWVRQAPGKGLEWVAYISYDGSNKYYAAPVKGRFTISRDNSKNTLYLQMNSLRAEDTAVYYCAKDAAWGLRLGESSSYDFDIWGQGTMVTVSS
# B17: 1.1-6GS-2.15 (bispecific antibody, not shown: small tags and cut ends)
# chain: EVQLLESGGGLVQPGGSLRLSCAASGFSFSSYAMSWVRQAPGKGLEWVSSIGENDGTTDYADSVKGRFTISRDNSKSMLYLQMNSLRVEDTAVYYCVKDGVHWGQGTLVTVSSGGGGSGGGGSGGGGSGGGGSGGGGSGGGGSEVQLVESGGGVVQPGRSLRLSCAASGFSFSGYGLHWVRQAPGKGLEWVAYISYDKSNKYYADKVKGRFTISRDNSKNTLYLQMNSLRAEDTAVYYCAKDPAWGLRLGESSSYDFDIWGQGTMVTVSS
# B18: single VH domain antibody 9.1 (VHH)
# VHH: QVQLQQWGAGLLKPSETLSLTCAVYGGSFSGHYWSWIRQPPGKGLEWIGDINHSGSTNYNPSLKSRVTISVDTSKNQFSLKLSSVTAADTAVYYCVRDYGDSRSLFDYWGQGTLVTVSS
# notes: as for B1
# Assays:
# [1] = target: T1, recombinant human PSMA (R&D, cat. no. 4234-ZN) (human, UniProt Q04609 44-750); experiment: periprep/phage screen, rhPSMA
# T1 construct: also called rhPSMA; Recombinant PMSA
# [2] = target: human PSMA (prostate specific membrane antigen), full-length, expressed on cells (human, UniProt Q04609 1-750); experiment: cell-based or functional assay
# [3] = target: cynomolgus PSMA, full-length, expressed on CHO cells (cynomolgus, UniProt A0A2K5VNZ0 1-750); experiment: cell-based or functional assay
# Chain of human PSMA (prostate specific membrane antigen), full-length, expressed on cells (Q04609 whole entry): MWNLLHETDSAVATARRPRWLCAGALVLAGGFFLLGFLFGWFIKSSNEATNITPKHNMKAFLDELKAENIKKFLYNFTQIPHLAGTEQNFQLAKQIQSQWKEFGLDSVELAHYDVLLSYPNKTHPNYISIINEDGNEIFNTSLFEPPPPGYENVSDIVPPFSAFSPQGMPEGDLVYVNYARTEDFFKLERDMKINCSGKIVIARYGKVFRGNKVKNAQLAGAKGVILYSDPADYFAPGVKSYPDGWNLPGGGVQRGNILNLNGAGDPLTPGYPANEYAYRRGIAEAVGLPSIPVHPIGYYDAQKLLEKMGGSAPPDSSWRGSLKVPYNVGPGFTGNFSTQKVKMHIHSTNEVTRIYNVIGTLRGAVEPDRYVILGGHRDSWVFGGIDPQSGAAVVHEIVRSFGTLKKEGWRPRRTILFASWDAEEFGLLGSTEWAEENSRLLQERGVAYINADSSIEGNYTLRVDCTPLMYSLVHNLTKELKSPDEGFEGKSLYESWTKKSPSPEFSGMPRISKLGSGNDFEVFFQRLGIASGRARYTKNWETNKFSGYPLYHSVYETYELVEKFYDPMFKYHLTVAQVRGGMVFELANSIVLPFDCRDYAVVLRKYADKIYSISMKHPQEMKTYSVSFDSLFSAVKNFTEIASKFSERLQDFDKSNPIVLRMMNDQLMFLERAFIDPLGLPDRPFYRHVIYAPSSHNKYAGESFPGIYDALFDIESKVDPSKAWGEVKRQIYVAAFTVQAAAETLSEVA
# T1 sequence (Q04609 44-750 limits assumed): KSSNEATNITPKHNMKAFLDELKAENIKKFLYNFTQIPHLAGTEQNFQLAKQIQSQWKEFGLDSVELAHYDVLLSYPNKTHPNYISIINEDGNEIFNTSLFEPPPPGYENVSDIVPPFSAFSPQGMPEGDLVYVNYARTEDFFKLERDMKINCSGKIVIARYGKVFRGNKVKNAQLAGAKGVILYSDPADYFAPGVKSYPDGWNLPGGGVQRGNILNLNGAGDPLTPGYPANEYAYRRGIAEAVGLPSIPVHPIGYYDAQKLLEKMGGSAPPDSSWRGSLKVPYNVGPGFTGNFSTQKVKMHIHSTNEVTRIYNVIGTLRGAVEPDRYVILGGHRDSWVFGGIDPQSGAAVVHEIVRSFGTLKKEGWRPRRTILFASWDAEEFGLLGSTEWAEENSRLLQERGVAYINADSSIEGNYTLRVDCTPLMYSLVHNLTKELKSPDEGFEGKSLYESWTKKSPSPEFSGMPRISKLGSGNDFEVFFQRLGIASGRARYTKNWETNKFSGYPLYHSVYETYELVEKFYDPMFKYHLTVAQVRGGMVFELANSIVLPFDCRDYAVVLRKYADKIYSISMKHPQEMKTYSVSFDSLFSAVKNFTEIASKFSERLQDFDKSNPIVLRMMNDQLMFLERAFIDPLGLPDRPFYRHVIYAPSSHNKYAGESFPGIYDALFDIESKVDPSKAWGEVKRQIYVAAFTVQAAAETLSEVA
Binder,binding result [1],"His-ZAP cell killing, human PSMA Average EC50 [2] [nM]","His-ZAP cell killing, cyno PSMA Average EC50 [3] [nM]"
B1,no binding,,
B2,,0.017,0.012
B3,,0.01,0.0095
B4,,,0.012
B5,,0.0057,0.0058
B6,,,0.009
B7,,0.015,0.011
B8,,0.0079,0.0081
B9,,0.02,0.011
B10,,0.014,0.013
B11,,0.012,0.0056
B12,,,0.011
B13,,,0.01
B14,,,0.0078
B15,,,0.011
B16,,0.015,0.014
B17,,,0.0086
B18,no binding,,
